Measurements reported in article PMC9864010.

Key:
[1] = target: AP205 cVLP displaying SpyCatcher (SpyC-cVLP) (Acinetobacter phage AP205); experiment: covalent SpyTag/SpyCatcher coupling shown by reduced SDS-PAGE with densitometry; FL PCSK9-SpyT in 100 mM HEPES, 500 mM NaCl, pH 7 mixed 1:1.2 (cVLP subunit per antigen) with SpyC-cVLP, HEPES to 250 mM and L-Arginine to 500 mM, overnight at 4 °C; coupling band on reduced SDS-PAGE; coupling efficiency by densitometry
[2] = target: AP205 cVLP displaying SpyTag (SpyT-cVLP) (Acinetobacter phage AP205); experiment: covalent SpyTag/SpyCatcher coupling shown by reduced SDS-PAGE with densitometry; SpyT-cVLP and SpyC-PCSK9 antigen mixed in a 1:2 molar ratio in PBS, pH 7.4, overnight at 4 °C; coupling band on reduced SDS-PAGE; coupling efficiency = coupled cVLP subunits/(coupled + uncoupled cVLP subunits) by densitometry

Row | Substance | antigen coupling efficiency (percentage of binding sites per cVLP conjugated to an antigen) [1] [%] | antigen coupling efficiency (percentage of binding sites per cVLP conjugated to an antigen) [2] [%]
1 | FL PCSK9-SpyT (muPCSK9(35–694) R221S-SpyT) | 40 | –
2 | SpyC-PCSK9(156–227) (from UniProt Q80W65 156-227) | – | 60
3 | SpyC-PCSK9(210–226) (from UniProt Q80W65 210-226) | – | 80
